The values below come from PMC5080453, “Structural characterization of twisted gastrulation provides insights into opposing functions on the BMP signalling pathway” (Matrix Biology, 2016).

T1: ΔN-chordin (human chordin construct lacking the N-terminal part) (human, UniProt Q9H2X0 129-955)
T1 construct: chordin, human, ΔN-chordin: partially cleaved chordin fragment lacking the N-terminus and containing the C-terminal vWC domains; source: HEK 293-EBNA cells, as previously described [13]
T1 sequence (looked up): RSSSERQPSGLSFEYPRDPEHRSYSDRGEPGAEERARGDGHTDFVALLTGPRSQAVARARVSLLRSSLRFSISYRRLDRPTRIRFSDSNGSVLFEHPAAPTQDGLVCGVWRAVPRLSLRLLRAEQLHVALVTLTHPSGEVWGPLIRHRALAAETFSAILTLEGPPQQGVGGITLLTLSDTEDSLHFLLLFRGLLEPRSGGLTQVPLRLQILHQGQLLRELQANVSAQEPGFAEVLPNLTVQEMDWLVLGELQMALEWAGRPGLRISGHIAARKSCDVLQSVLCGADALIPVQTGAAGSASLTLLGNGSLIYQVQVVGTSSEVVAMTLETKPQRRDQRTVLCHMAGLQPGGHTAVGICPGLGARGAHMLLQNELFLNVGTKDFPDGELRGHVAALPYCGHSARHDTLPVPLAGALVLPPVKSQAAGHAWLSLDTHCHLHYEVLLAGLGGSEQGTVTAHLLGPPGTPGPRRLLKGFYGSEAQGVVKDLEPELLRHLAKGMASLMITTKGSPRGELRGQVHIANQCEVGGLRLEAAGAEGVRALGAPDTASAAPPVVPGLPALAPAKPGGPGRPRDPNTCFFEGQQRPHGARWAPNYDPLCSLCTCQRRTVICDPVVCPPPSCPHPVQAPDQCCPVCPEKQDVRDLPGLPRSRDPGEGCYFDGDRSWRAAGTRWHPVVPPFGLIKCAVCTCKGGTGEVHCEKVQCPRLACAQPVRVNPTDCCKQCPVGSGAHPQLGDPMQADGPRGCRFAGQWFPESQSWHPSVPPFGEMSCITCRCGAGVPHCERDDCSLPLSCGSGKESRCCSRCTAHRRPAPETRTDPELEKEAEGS

B1: human twisted gastrulation (Tsg), native (glycosylated) (natural protein, UniProt Q9GZX9 26-223, looked up)
chain: CNKALCASDVSKCLIQELCQCRPGEGNCSCCKECMLCLGALWDECCDCVGMCNPRNYSDTPPTSKSTVEELHEPIPSLFRALTEGDTQLNWNIVSFPVAEELSHHENLVSFLETVNQPHHQNVSVPSNNVHAPYSSDKEHMCTVVYFDDCMSIHQCKISCESMGASKYRWFHNACCECIGPECIDYGSKTVKCMNCMF
modifications: N-linked glycans (three predicted N-linked glycosylation sites)
notes: twisted gastrulation (Tsg), human, generated by PCR from image clone Q9GZX9; a thrombin cleavage site stands before the C-terminal His6 tag; For MST it was labelled with NT647 (Red-NHS kit); Monomer by MALS, AUC and SAXS; also called native Tsg
B2: chordin vWC2–3 (residues 701–860) (domain or fragment, human, UniProt Q9H2X0 701-860, looked up)
chain: DPNTCFFEGQQRPHGARWAPNYDPLCSLCTCQRRTVICDPVVCPPPSCPHPVQAPDQCCPVCPEKQDVRDLPGLPRSRDPGEGCYFDGDRSWRAAGTRWHPVVPPFGLIKCAVCTCKGGTGEVHCEKVQCPRLACAQPVRVNPTDCCKQCPVGSGAHPQL
notes: chordin, human, vWC2–3, residues 701–860, generated by PCR from full-length human chordin; thrombin cleavage site before the C-terminal His6 tag
B3: chordin vWC1 (residues 50–128) (domain or fragment, human, UniProt Q9H2X0 50-128, looked up)
chain: GCTFGGKVYALDETWHPDLGEPFGVMRCVLCACEAPQWGRRTRGPGRVSCKNIKPECPTPACGQPRQLPGHCCQTCPQE
notes: chordin, human, vWC1, residues 50–128, generated by PCR from full-length human chordin; thrombin cleavage site before the C-terminal His6 tag

Common to all, as to details: both partners purified
Assay [1] has as its target T1, ΔN-chordin (human chordin construct …). The assay is described as follows: SPR; ProteOn XPR36, GLC chip; Tsg immobilised by amine coupling (300 RU for ΔN-chordin and vWC2–3, 800 RU for vWC1-4CHRD and vWC1); chordin constructs injected at increasing concentrations; 25 °C, 10 mM HEPES, 150 mM NaCl, 3 mM EDTA, 0.05% Tween-20, pH 7.4, 50 μl/min; ΔN-chordin fitted to a 1:1 Langmuir model, vWC2–3 by equilibrium analysis; triplicate.

Assay [2] addresses B1. The description is as above.
Assay [3] concerns the target B1. The assay is described as follows: MST; 15 nM NT647-labelled Tsg mixed with serial dilutions of vWC1 from 7 μM; 50 mM Tris, 150 mM NaCl, 10 mM MgCl2, 0.05% Tween-20, pH 7.4; Monolith NT.115Pico, 20% LED, 20% MST power; triplicate.

For orientation: Kd means the concentration at which binding is half-saturated. In the case of B1, the Kd in assay [1] was determined as 3.08 nM.
For the molecule B2, in assay [2], the Kd is 26.4 nM.
B3: the Kd in assay [3] is 322 nM.
